Changes are numbered by the printed parent chain.

In general, Kd refers to the constant that tells how readily two partners part at equilibrium.

T1: human FcγRIIb extracellular domain, C-terminal His-tag (human, UniProt P31994 43-217)
T1 construct: also called FcgRIIb (human); not shown: His-tag added to C-terminus
T1 sequence: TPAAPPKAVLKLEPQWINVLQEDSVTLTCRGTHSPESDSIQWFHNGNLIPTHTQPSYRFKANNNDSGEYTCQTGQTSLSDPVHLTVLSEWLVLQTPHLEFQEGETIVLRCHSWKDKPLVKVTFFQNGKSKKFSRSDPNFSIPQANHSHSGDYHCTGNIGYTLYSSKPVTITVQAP

T2: cynomolgus monkey FcγRIIa2 extracellular domain, C-terminal His-tag (cynomolgus monkey)
T2 construct: also called cyno FcγRIIa2; cynoFcgRIIa2; not shown: His-tag added to C-terminus
T2 chain: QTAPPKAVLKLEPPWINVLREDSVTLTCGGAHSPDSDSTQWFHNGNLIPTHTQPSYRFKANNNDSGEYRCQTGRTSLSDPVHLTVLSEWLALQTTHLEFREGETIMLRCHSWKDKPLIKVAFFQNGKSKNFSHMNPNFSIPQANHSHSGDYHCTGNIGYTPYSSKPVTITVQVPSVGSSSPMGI

T3: cynomolgus monkey FcγRIIa3 extracellular domain, C-terminal His-tag (cynomolgus monkey)
T3 construct: also called cyno FcγRIIa3; cynoFcgRIIa3; not shown: His-tag added to C-terminus
T3 chain: T2 chain with K127I, N130K, H133P, Q142R

T4: cynomolgus monkey FcγRIIa1 extracellular domain, C-terminal His-tag (cynomolgus monkey)
T4 construct: also called cyno FcγRIIa1; cynoFcgRIIa1; not shown: His-tag added to C-terminus
T4 chain: T2 chain with T95P, A121T, K127I, S128A, N130K, N135D, Q142R

T5: cynomolgus monkey FcγRIIb extracellular domain, C-terminal His-tag (cynomolgus monkey)
T5 construct: also called cyno FcγRIIb; cynoFcγRIIb; not shown: His-tag added to C-terminus
T5 chain: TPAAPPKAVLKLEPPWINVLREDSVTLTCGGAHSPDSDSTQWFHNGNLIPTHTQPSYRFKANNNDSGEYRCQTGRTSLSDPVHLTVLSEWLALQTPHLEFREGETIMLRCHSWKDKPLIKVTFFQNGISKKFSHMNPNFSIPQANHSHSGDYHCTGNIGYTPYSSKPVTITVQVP

T6: human FcγRIIaR extracellular domain, C-terminal His-tag (human, UniProt P12318 34-217)
T6 construct: also called human FcγRIIa (type R); FcgRIIaR; not shown: His-tag added to C-terminus
T6 chain: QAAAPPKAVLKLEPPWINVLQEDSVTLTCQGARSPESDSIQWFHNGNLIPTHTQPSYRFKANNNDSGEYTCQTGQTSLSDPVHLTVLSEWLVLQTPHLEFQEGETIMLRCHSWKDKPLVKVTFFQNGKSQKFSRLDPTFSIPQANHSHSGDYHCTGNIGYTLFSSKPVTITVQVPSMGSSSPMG

T7: human FcγRIIaH extracellular domain, C-terminal His-tag (human, UniProt P12318 34-217)
T7 construct: also called human FcγRIIa (type H); FcgRIIaH; not shown: His-tag added to C-terminus
T7 sequence: T6 chain with R134H

B1: M103205H795-MY276/M103202L889-SK1 (antibody, human IgG1, kappa)
heavy: QVTLKESGPVLVKPTETLTLTCTVSGIDLSHDDISWVRQAPGKGLEWVGIISYAGSTYYASWAKGRLTISKDTSKNQVVLTMTNMDPVDTATYYCARGVPAYSHGGDLWGQGTLVTVSSASTKGPSVFPLAPSSKSTSGGTAALGCLVKDYFPEPVTVSWNSGALTSGVHTFPAVLQSSGLYSLSSVVTVPSSSLGTQTYICNVNHKPSNTKVDKKVEPKSCDKTHTCPPCPAPELLIGPSVFLFPPKPKDTLMISRTPEVTCVVVDVSDEDPEVKFNWYVDGVEVHNAKTKPREEQYNSTYRVVSVLTVLHQDWLNGKEYKCKVSNKALPKPIEKTISKAKGQPREPQVYTLPPSREEMTKNQVSLTCLVKGFYPSDIAVEWESNGQPENNYKTTPKVLDSDGSFFLYSKLTVDKSRWQQGNVFSCSVMHEALHNHYTQKSLSLSP
light: DIVMTQSPATLSLSPGERATLSCTSSQSVYHANWLSWFQQKPGQPPKLLIYWASTLAYGVPSRFSGSGSGTDFTLTISSLQPEDAATYYCAGGYGGGRYAFGQGTKVEIKRTVAAPSVFIFPPSDEQLKSGTASVVCLLNNFYPREAKVQWKVDNALQSGNSQESVTEQDSKDSTYSLSSTLTLSKADYEKHKVYACEVTHQGLSSPVTKSFNRGEC
B2: M103205H795-MY312/M103202L889-SK1 (antibody, human IgG1, kappa)
heavy: B1 heavy with I238T, D270E, K328T, K398M
light: B1 light
B3: M103205H795-MY281/M103202L889-SK1 (antibody, human IgG1, kappa)
heavy: B1 heavy with I238Q, Q297L, K398P
light: B1 light
B4: M103205H795-MY309/M103202L889-SK1 (antibody, human IgG1, kappa)
heavy: B1 heavy with I238T, D270E, K398M
light: B1 light
B5: M103205H795-MY311/M103202L889-SK1 (antibody, human IgG1, kappa)
heavy: B1 heavy with I238T, D270E, Q297L, K398P
light: B1 light
B6: M103205H795-MY310/M103202L889-SK1 (antibody, human IgG1, kappa)
heavy: B1 heavy with I238T, D270E, K328T, K398P
light: B1 light
B7: M103205H795-MY292/M103202L889-SK1 (antibody, human IgG1, kappa)
heavy: B1 heavy with I238G, G239Y, Q297L, K398M
light: B1 light
B8: M103205H795-MY279/M103202L889-SK1 (antibody, human IgG1, kappa)
heavy: B1 heavy with I238H, Q297L, K398P
light: B1 light
B9: M103205H795-MY293/M103202L889-SK1 (antibody, human IgG1, kappa)
heavy: B1 heavy with I238G, G239Y, D270E, Q297L
light: B1 light
B10: M103205H795-MY308/M103202L889-SK1 (antibody, human IgG1, kappa)
heavy: B1 heavy with I238T, D270E, K398P
light: B1 light
B11: M103205H795-MY280/M103202L889-SK1 (antibody, human IgG1, kappa)
heavy: B1 heavy with I238V, Q297L, K398P
light: B1 light
B12: M103205H795-MY278/M103202L889-SK1 (antibody, human IgG1, kappa)
heavy: B1 heavy with I238M, Q297L, K398P
light: B1 light

The first assay concerns the target T1, human FcγRIIb extracellular domain, …. In words: SPR (Biacore), antibody captured, FcgR analyte, 25 C. For orientation: Surface plasmon resonance follows binding to a sensor surface in real time, without labels.
B1 showed a Kd of 2400 nM.
B2 showed a Kd of 1100 nM.
The same measure, in the same setting: the same measure for B3: 1800 nM; for B4: 1600 nM.
On the same count and under the same terms, the same measure for B5: 2100 nM.
Same read-out and setting: to B6 belongs 2900 nM.
In turn, B7 displayed a Kd of 140 nM.
With B8, the Kd came to 4600 nM.
On the same count and under the same terms, to B9 belongs 150 nM; to B10, 4100 nM; to B11, 2900 nM.
Same read-out and setting: the same measure for B12: 4400 nM.

The target of the next assay is T8, cynomolgus monkey FcγRIIIaS extracellular domain, C-terminal His-tag (cynomolgus monkey, UniProt A3RFZ7 21-206 (rhesus entry)).
T8 construct: also called cyno FcγRIIIaS; cynoFcγRIIIaS; not shown: His-tag added to C-terminus
T8 sequence (A3RFZ7 21-206): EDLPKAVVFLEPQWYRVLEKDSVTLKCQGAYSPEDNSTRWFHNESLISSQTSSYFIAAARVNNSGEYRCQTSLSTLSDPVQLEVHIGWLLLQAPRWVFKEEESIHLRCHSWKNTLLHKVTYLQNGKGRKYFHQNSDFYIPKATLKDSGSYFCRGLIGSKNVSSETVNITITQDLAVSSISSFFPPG
The description is as above.
As for B1, the Kd turned out to be 1200 nM.
In turn, B2 had a Kd of 650 nM.
The same measure, in the same setting: to B3 belongs 740 nM.
Same read-out and setting: the same measure for B4: 1200 nM.
Still for that read-out and setting: the same measure for B5: 2400 nM.
For the molecule B6, the affinity, expressed as Kd, was 1800 nM.
Take B7: the Kd amounted to 4000 nM.
Still for that read-out and setting: to B8 belongs 2400 nM.
Same read-out and setting: the same measure for B9: 4200 nM.
Still for that read-out and setting: the same measure for B10: 2900 nM.
With B11, binding was characterised by a dissociation constant (Kd) of 1800 nM.
Same read-out and setting: the same measure for B12: 740 nM.

The target of a further assay is T2, cynomolgus monkey FcγRIIa2 …. Described as above.
For B1, the Kd worked out at 1300 nM.
On the same count and under the same terms, the same measure for B2: 1500 nM; for B3: 2500 nM; for B4: 2500 nM.
Still for that read-out and setting: to B5 belongs 3400 nM; to B6, 2900 nM; to B7, 2500 nM.
Same read-out and setting: to B8 belongs 3300 nM.
B9 yielded a Kd of 3300 nM.
B10 yielded a Kd of 4600 nM.
The same measure, in the same setting: the same measure for B11: 1200 nM; for B12: 3600 nM.

The target of the next assay is T3, cynomolgus monkey FcγRIIa3 …. Described as above.
In the case of B1, the Kd amounted to 4300 nM.
Still for that read-out and setting: to B2 belongs 3700 nM; to B3, 9100 nM; to B4, 7000 nM.
For the molecule B5, the affinity, expressed as Kd, was 8600 nM.
Same read-out and setting: the same measure for B6: 7200 nM; for B7: 2200 nM; for B8: 4700 nM.
The same measure, in the same setting: the same measure for B9: 3900 nM.
On the same count and under the same terms, the same measure for B10: 1100 nM; for B11: 4600 nM; for B12: 10000 nM.

The target in another assay is T4, cynomolgus monkey FcγRIIa1 …. The assay is described as above.
Regarding B1, the dissociation constant Kd was 1100 nM.
On to B2, for which binding was characterised by a dissociation constant (Kd) of 1400 nM.
On to B3, for which the Kd stood at 1900 nM.
Still for that read-out and setting: the same measure for B4: 3500 nM; for B5: 2300 nM; for B6: 3000 nM.
Molecule B7 returned a Kd of 1500 nM.
On the same count and under the same terms, to B8 belongs 2800 nM; to B9, 2300 nM.
The same measure, in the same setting: the same measure for B10: 3900 nM; for B11: 1000 nM.
The molecule B12 had a Kd of 3000 nM.

Another assay deals with T5, cynomolgus monkey FcγRIIb extracellular …. The description is as above.
In turn, B1 yielded a Kd of 310 nM.
Still for that read-out and setting: the same measure for B2: 400 nM.
On the same count and under the same terms, to B3 belongs 620 nM.
Same read-out and setting: the same measure for B4: 710 nM; for B5: 780 nM; for B6: 950 nM.
The molecule B7 came in with a Kd of 430 nM.
The molecule B8 gave a Kd of 910 nM.
The same measure, in the same setting: to B9 belongs 860 nM; to B10, 1300 nM.
Same read-out and setting: the same measure for B11: 330 nM; for B12: 1300 nM.

The target in a further assay is T6, human FcγRIIaR extracellular domain, …. Described as above.
In turn, B1 had a Kd of 250 nM.
Turning to B2, the Kd was 170 nM.
Still for that read-out and setting: to B3 belongs 390 nM.
Still for that read-out and setting: the same measure for B4: 260 nM; for B5: 450 nM; for B6: 550 nM.
The same measure, in the same setting: to B7 belongs 76 nM.
As to B8, the Kd turned out to be 720 nM.
As for B9, the Kd worked out at 73 nM.
On the same count and under the same terms, to B10 belongs 360 nM; to B11, 450 nM; to B12, 1300 nM.

The target of another assay is T7, human FcγRIIaH extracellular domain, …. Described as above.
Molecule B1 came in with a Kd of 53 nM.
The same measure, in the same setting: the same measure for B2: 110 nM; for B3: 130 nM; for B4: 140 nM.
On the same count and under the same terms, the same measure for B5: 200 nM.
Take B6: the Kd stood at 400 nM.
As to B7, binding was put at a Kd of 950 nM.
Still for that read-out and setting: the same measure for B8: 140 nM.
The same measure, in the same setting: the same measure for B9: 1300 nM.
B10 registered a Kd of 450 nM.
The same measure, in the same setting: the same measure for B11: 81 nM; for B12: 530 nM.

The values are drawn from patent US20200317768A1 (published 2020).
